How the values were obtained:
[1] = molecular target: human EGFR on CHO-S-hEGFR cells (human) (UniProt P00533); experiment: flow cytometry, transfected CHO-S cells
[2] = molecular target: human MUC1 (484 amino acids) on CHO-S-hMUC1 (484AA) cells (human) (UniProt P15941); experiment: flow cytometry, transfected CHO-S cells
[3] = molecular target: monkey (Macaca fascicularis) MUC1 on CHO-S-fasMUC1 cells (monkey (Macaca fascicularis)); experiment: flow cytometry, transfected CHO-S cells
[4] = molecular target: monkey EGFR on CHO-S-fasEGFR cells (monkey) (UniProt P55245); experiment: flow cytometry, transfected CHO-S cells
[5] = molecular target: human EGFR on CHO-S-hEGFR cells (human) (UniProt P00533); experiment: flow cytometry, transfected CHO-S cells, secondary antibody only
[6] = molecular target: human MUC1 (484 amino acids) on CHO-S-hMUC1 (484AA) cells (human) (UniProt P15941); experiment: as above
[7] = molecular target: monkey (Macaca fascicularis) MUC1 on CHO-S-fasMUC1 cells (monkey (Macaca fascicularis)); experiment: as above
[8] = molecular target: monkey EGFR on CHO-S-fasEGFR cells (monkey) (UniProt P55245); experiment: as above

monkey (Macaca fascicularis) MUC1 on CHO-S-fasMUC1 cells (monkey (Macaca fascicularis)), sequence (chain, as listed by the source): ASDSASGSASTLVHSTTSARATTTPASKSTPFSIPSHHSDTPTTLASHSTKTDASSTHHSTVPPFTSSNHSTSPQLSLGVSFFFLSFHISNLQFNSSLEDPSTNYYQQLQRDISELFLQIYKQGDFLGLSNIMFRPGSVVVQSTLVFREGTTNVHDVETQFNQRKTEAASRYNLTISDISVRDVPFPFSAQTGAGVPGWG

Row | Substance | Percentage of Positive Cells (%) [1] | Percentage of Positive Cells (%) [2] | Percentage of Positive Cells (%) [3] | Percentage of Positive Cells (%) [4] | Percentage of Positive Cells (%) [5] | Percentage of Positive Cells (%) [6] | Percentage of Positive Cells (%) [7] | Percentage of Positive Cells (%) [8]
1 | isotype control (ISO), an antibody targeting an irrelevant target protein | 0.7% | 4.05% | 1.15% | 0.58% |  |  |  | 
2 | secondary antibody anti-hIgG-Fc-Alex Flour 647 (RLI-H) (Jackson ImmunoResearch Laboratories, Inc., Cat #: 109-606-170) |  |  |  |  | 0.66% | 2% | 0.91% | 0.19%

— patent US20260217860A1
